In patent publication US20260209265A1 (NAVIGO PROTEINS, published 2026):

Assays:
Panitumab (IgG2) = molecular target: T1, Panitumab (IgG2); test: SPR (Bruker SPR-32, 25 C, Langmuir 1:1 model)
T1 construct: also called hIgG2
Excerpt: (§1) A sensor chip (Bruker) was equilibrated with surface plasmon resonance (SPR) running buffer. Surface-exposed carboxylic groups were activated by passing a mixture of EDC and NHS to yield reactive ester groups. 700-1500 RU on-ligand were immobilized on a flow cell, off-ligand was immobilized on another flow cell. Injection of ethanolamine after ligand immobilization removes non-covalently bound Ig binding protein. Upon ligand binding, protein analyte was accumulated on the surface increasing the refractive index. This change in the refractive index was measured in real time and plotted as response or resonance units (RU) versus time. The analytes were applied to the chip in serial dilutions with a suitable flow rate (pl/min). After each run, the chip surface was regenerated with regeneration buffer and equilibrated with running buffer. The control samples were applied to the matrix. Regeneration and re-equilibration were performed as previously mentioned. Binding studies were carried out by the use of the Bruker SPR-32 at 25° C.; data evaluation was operated via the Bruker evaluation software, provided by the manufacturer, by the use of the Langmuir 1:1 model (RI=0).

Natalizumab (IgG4) = test: SPR (Bruker SPR-32, 25 C, Langmuir 1:1 model)
Excerpt: as §1

Octagam (IgG sample) [1] = molecular target: T2, Octagam (IgG sample); test: DBC10 of the immobilized ligand after 50 h in 1 M NaOH, in % of the DBC10 at 0 h; Octagam loaded, 6 min residence time
T2 construct: also called hIgG

Octagam (IgG sample) [2] = molecular target: T2, Octagam (IgG sample); test: step pH elution with 0.1 M acetic acid of hIgG (Octagam) bound to the immobilized ligand; percent of the bound IgG released at pH 4.0
Octagam (IgG sample) [3] = molecular target: T2, Octagam (IgG sample); test: dynamic binding capacity at 10% breakthrough; ligand coupled to agarose beads, Octagam 2.2 mg/ml loaded
Octagam (IgG sample) [4] = molecular target: T2, Octagam (IgG sample); test: step pH elution with 0.1 M acetic acid of hIgG (Octagam) bound to the immobilized ligand; percent of the bound IgG released at pH 3.7

Sequence of Natalizumab (IgG4) (VH, as listed by the source, chain 1 of 2): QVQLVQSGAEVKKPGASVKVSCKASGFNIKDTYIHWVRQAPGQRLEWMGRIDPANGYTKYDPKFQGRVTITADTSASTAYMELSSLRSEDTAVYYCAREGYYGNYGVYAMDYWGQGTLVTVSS
Sequence of Natalizumab (IgG4) (VL, as listed by the source, chain 2 of 2): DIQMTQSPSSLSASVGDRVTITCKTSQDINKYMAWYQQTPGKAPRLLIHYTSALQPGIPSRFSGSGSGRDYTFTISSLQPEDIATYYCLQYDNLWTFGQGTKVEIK

B1: 224777 (SEQ ID NO: 7) (designed binder)
chain: AQFDKIAQIAFYAILHLPNLTEEQRHAFIQSLRDDPSVSKEILAEAKKLNDAQAPKIAAQFDKIAQIAFYAILHLPNLTEEQRHAFIQSLRDDPSVSKEILAEAKKLNDAQAPKIAAQFDKIAQIAFYAILHLPNLTEEQRHAFIQSLRDDPSVSKEILAEAKKLNDAQAPKIAAQFDKIAQIAFYAILHLPNLTEEQRHAFIQSLRDDPSVSKEILAEAKKLNDAQAPKIAAQFDKIAQIAFYAILHLPNLTEEQRHAFIQSLRDDPSVSKEILAEAKKLNDAQAPK
notes: also called 224777 pentamer
- Kd (Panitumab (IgG2)): 5.8 nM
- Kd (Natalizumab (IgG4)): 2 nM
- Remaining IgG binding capacity after 50 h, 1 M NaOH (%) (Octagam (IgG sample) [1]): 76%
- Amount eluted IgG pH 4.0 (%) (Octagam (IgG sample) [2]): 100%
- DBC10% 6 min residence time (Octagam (IgG sample) [3]): 61 mg/mL
- Amount eluted IgG pH 3.7 (%) (Octagam (IgG sample) [4]): 0%
